This assay has as its target T1, recombinant EGFRvIII/Fc protein (UniProt P00533 25-645).
T1 construct: Staining reagent for flow cytometry; not shown: Fc part not described
Nature of the assay: flow cytometry, CAR T cells stained with recombinant EGFRvIII/Fc, day 1. As for the experimental part:
Briefly, EGFRvIII-specific CAR vectors were introduced into via electroporation, using a Sleeping Beauty-based transposon system to mediate genomic integration of the transposons. On day 0, PBMC were mixed with CAR transposon and SB transposase and electroporated. The following day (day1) cells count and viability were measured followed by flow cytometry to quantify CAR expression. CAR-T cells were stimulated by co-culture with either γ-irradiated) or mitomycin C treated AaPCs. The AaPC cells used were K562 cell line expressing EGFRvIII antigen. EGFRvIII-CAR-T cells were expanded ex vivo by once weekly stimulation with the AaPCs. Cultures were maintained in media supplemented with IL-2 (and/or IL-21. EGFRvIII-specific CAR expression was measured using recombinant EGFRvIII/Fc protein staining as detected by multi-parameter flow cytometry.

B1: EGFRvIII CAR (MR1-1 scFv · CD8alpha 4x hinge&TM · 4-1BB · CD3ζ) (receptor)
chain: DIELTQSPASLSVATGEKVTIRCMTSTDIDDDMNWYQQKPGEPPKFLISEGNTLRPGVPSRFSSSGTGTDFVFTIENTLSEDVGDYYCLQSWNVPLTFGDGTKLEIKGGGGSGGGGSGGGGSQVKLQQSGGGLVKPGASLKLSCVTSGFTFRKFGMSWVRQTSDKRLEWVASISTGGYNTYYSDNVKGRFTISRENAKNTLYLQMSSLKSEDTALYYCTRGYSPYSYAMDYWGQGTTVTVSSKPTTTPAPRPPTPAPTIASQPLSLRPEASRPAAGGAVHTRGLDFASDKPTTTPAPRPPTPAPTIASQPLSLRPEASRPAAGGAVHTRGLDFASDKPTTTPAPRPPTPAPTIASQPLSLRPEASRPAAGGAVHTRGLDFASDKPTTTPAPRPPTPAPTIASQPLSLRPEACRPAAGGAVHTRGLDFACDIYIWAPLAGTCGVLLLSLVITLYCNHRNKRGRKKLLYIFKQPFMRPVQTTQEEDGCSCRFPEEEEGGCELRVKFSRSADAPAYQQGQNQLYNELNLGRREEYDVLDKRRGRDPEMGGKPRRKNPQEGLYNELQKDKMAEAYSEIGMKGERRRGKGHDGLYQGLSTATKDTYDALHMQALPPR
notes: Expressed on human T cells; also called MR1-1 CAR CD8-4×
On to B1, for which the binding result is “binds”.

B2: EGFRvIII CAR (MR1-1 scFv · CD8alpha 3x hinge&TM · 4-1BB · CD3ζ) (receptor)
chain: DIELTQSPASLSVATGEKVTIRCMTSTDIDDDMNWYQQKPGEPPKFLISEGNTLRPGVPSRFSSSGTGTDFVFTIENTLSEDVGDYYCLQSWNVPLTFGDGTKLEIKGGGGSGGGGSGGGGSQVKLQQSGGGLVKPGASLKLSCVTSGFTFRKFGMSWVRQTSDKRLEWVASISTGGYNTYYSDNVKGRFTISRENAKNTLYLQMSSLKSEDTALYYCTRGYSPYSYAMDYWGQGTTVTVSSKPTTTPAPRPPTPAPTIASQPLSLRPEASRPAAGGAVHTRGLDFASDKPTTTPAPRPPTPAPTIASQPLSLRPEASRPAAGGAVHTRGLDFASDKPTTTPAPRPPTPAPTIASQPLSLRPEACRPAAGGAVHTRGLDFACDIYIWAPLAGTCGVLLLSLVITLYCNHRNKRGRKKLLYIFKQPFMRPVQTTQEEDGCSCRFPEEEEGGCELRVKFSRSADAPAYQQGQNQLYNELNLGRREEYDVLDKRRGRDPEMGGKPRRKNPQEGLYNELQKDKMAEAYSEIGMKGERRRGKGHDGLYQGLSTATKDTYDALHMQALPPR
notes: Expressed on human T cells; also called MR1-1 CAR CD8-3×
Consider B2, for which the binding result is on record as “binds”.

The values are drawn from patent US20190111080A1 (PRECIGEN, published 2019).
